For one series, the target named is T1, alpha fetoprotein (AFP) (human, UniProt P02771 19-609).
T1 sequence: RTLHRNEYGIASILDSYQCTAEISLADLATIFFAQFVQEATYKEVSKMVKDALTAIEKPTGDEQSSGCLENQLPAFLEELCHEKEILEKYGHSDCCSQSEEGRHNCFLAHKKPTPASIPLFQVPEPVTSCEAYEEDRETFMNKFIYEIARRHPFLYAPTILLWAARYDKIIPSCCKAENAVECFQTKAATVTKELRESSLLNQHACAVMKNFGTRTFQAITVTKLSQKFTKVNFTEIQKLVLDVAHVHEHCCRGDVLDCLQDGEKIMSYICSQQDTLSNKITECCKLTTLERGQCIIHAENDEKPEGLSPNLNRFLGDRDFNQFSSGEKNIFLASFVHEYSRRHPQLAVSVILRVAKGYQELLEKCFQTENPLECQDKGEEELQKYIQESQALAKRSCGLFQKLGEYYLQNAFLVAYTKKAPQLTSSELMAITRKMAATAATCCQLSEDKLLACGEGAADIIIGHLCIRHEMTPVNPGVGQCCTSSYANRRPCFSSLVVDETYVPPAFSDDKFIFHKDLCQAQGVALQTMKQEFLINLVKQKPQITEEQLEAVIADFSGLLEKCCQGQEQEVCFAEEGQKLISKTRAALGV
As to the kind of experiment: electrochemical sandwich aptasensor.

Another series has as its target T2, C-reactive protein (CRP) (UniProt P02741 19-224).
T2 sequence: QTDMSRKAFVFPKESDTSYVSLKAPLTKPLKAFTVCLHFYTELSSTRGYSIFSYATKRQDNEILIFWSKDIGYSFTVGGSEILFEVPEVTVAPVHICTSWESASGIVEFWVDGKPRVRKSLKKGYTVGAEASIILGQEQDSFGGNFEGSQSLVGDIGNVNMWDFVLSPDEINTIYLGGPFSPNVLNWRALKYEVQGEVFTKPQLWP
As to the kind of experiment: electrochemical sandwich aptasensor.

Consider two molecules from PMC9060916.

B1: HS-P-ATG (ssDNA)
DNA: ATACCAGCTTATTCAATTATG
modifications: 5' HS-(CH2)6
As to B1, the binding result with alpha fetoprotein (AFP) and in the series with C-reactive protein (CRP) was “no binding” in each case.

B2: HS-GAC-P (ssDNA)
DNA: GACATACCAGCTTATTCAATT
modifications: 5' HS-(CH2)6
Turning to B2, the binding result with alpha fetoprotein (AFP) and in the series with C-reactive protein (CRP) was “no binding” throughout.
